Laboratory results published in PMC3627587.
Like-named read-outs stand apart in the source and are kept apart here.

T1: sIHF (Streptomyces coelicolor, UniProt Q9KXR9 1-107)
T1 sequence: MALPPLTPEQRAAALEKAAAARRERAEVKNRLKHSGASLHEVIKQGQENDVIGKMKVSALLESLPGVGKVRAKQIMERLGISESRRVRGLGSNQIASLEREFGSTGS


Columns and labels:
[1] = molecular target: T1, sIHF; test: EMSA
[2] = molecular target: T1, sIHF; test: EMSA; remark: listed apart in the source

Row | Binder | binding result [1] | binding result [2]
1 | 19-bp duplex (20bp OH1/OH2) (dsDNA) DNA 1: GAGGGAGTGCGTGGGTCTGA DNA 2: CTCAGACCCACGCACTCCCT | binds | –
2 | 60-bp dsDNA (dsDNA) DNA 1: CGTACGCGTCGCCACGGCGGCGGCATCGTCCACGAGAACACCCGCCACACCACCCGCTTC DNA 2: GAAGCGGGTGGTGTGGCGGGTGTTCTCGTGGACGATGCCGCCGCCGTGGCGACGCGTACG | – | binds
3 | 43-bp dsDNA (dsDNA) DNA 1: ACCAGGTGGTTGCCGATCACCACGAAGCGGGTGGTGTGGCGGG DNA 2: CCCGCCACACCACCCGCTTCGTGGTGATCGGCAACCACCTGGT | – | binds
